From paper PMC6113214, “Outer membrane lipoprotein RlpA is a novel periplasmic interaction partner of the cell division protein FtsK in Escherichia coli” (Scientific Reports, 2018)

Molecular target: T1, FtsZ (E. coli, UniProt P0A9A6 1-383)
T1 construct: FtsZ, tubulin homologue of the Z-ring; the species is told only of the protein in general; also called purified FtsZ
T1 sequence (looked up): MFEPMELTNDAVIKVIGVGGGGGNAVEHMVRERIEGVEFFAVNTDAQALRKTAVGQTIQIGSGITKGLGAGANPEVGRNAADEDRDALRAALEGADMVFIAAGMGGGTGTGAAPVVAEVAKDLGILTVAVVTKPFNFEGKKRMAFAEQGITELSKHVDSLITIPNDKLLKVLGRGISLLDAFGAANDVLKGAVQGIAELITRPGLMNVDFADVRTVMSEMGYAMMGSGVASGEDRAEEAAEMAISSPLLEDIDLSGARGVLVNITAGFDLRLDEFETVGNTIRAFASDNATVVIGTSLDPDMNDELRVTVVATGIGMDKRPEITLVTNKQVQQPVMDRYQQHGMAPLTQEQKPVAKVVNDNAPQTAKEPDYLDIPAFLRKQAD
Assay: pull-down; His10-FtsKN bound to 100 uL Ni2+ IMAC resin (bait); 320 ug purified FLAG-RlpA or 250 ug purified FtsZ (prey); 4 C overnight; three washes in 20 mM Tris-HCl pH 7.0, 100 mM NaCl, 25 mM imidazole, 0.05% LDAO; elution with 1 M imidazole; Western blot; empty resin as control
Conditions: both partners purified

B1: His10-FtsKN(220), N-terminal domain of the cell division protein FtsK (amino acids 1-220) (domain or fragment, E. coli, UniProt P46889 1-220, looked up)
chain: MSQEYIEDKEVTLTKLSSGRRLLEALLILIVLFAVWLMAALLSFNPSDPSWSQTAWHEPIHNLGGMPGAWLADTLFFIFGVMAYTIPVIIVGGCWFAWRHQSSDEYIDYFAVSLRIIGVLALILTSCGLAAINADDIWYFASGGVIGSLLSTTLQPLLHSSGGTIALLCVWAAGLTLFTGWSWVTIAEKLGGWILNILTFASNRTRRDDTWVDEDEYEDD
notes: FtsK of E. coli, N-terminal membrane anchor domain, amino acids 1-220 of the 1329 amino acid protein; also called WT FtsKN; not shown: His10, N-terminal, kept
B1: binds.
